One block for each binder: values may come before it.
B2: His-NONO fusion protein (natural protein, UniProt Q15233 1-471, looked up)
chain: MQSNKTFNLEKQNHTPRKHHQHHHQQQHHQQQQQQPPPPPIPANGQQASSQNEGLTIDLKNFRKPGEKTFTQRSRLFVGNLPPDITEEEMRKLFEKYGKAGEVFIHKDKGFGFIRLETRTLAEIAKVELDNMPLRGKQLRVRFACHSASLTVRNLPQYVSNELLEEAFSVFGQVERAVVIVDDRGRPSGKGIVEFSGKPAARKALDRCSEGSFLLTTFPRPVTVEPMDQLDDEEGLPEKLVIKNQQFHKEREQPPRFAQPGSFEYEYAMRWKALIEMEKQQQDQVDRNIKEAREKLEMEMEAARHEHQVMLMRQDLMRRQEELRRMEELHNQEVQKRKQLELRQEEERRRREEEMRRQQEEMMRRQQEGFKGTFPDAREQEIRMGQMAMGGAMGINNRGAMPPAPVPAGTPAPPGPATMMPDGTLGLTPPTTERFGQAATMEGIGAIGGTPPAFNRAAPGAEFAPNKRRRY
notes: NONO, from the pET28a plasmid; source: E. coli BL21, purified (nickel-nitrilotriacetic acid beads)

Tests used:
Conditions in all cases: both partners purified
His-NONO fusion protein = biological target: B2; experiment: pull-down; GST pull-down: GST-PKM2 (full length, fragments or mutants) incubated with His-NONO at 4 °C for 4 h, five washes, western blot
[1] = biological target: T1, full-length GST-PKM2, wild type (UniProt P14618 1-531); experiment: as above
T1 construct: PKM2, full length (fragments run to residue 531), from the pGEX-6P-1 plasmid; also called GST-PKM2 WT; PKM2-WT; source: E. coli BL21, purified (glutathione S-transferase beads)

GST-PKM2-S406A mutant = biological target: T2, GST-PKM2-S406A mutant (UniProt P14618 1-531, S406A); experiment: as above
T2 construct: Probably made on the full-length GST-PKM2; source: E. coli BL21, purified (glutathione S-transferase beads)

GST-PKM2-R400A mutant = biological target: T3, GST-PKM2-R400A mutant (UniProt P14618 1-531, R400A); experiment: as above
T3 construct: PKM2 point mutant, from the pGEX-6P-1 plasmid; Probably made on the full-length GST-PKM2; source: E. coli BL21, purified (glutathione S-transferase beads)

GST-PKM2-T412A mutant = biological target: T4, GST-PKM2-T412A mutant (UniProt P14618 1-531, T412A); experiment: as above
T4 construct: PKM2 point mutant, from the pGEX-6P-1 plasmid; Probably made on the full-length GST-PKM2; source: E. coli BL21, purified (glutathione S-transferase beads)

GST-PKM2-D476A mutant = biological target: T5, GST-PKM2-D476A mutant (UniProt P14618 1-531, D476A); experiment: as above
T5 construct: PKM2 point mutant, from the pGEX-6P-1 plasmid; Probably made on the full-length GST-PKM2; source: E. coli BL21, purified (glutathione S-transferase beads)

GST-PKM2-D487A mutant = biological target: T6, GST-PKM2-D487A mutant (UniProt P14618 1-531, D487A); experiment: as above
T6 construct: PKM2 point mutant, from the pGEX-6P-1 plasmid; Probably made on the full-length GST-PKM2; source: E. coli BL21, purified (glutathione S-transferase beads)

GST-PKM2-W515A mutant = biological target: T7, GST-PKM2-W515A mutant (UniProt P14618 1-531, W515A); experiment: as above
T7 construct: PKM2 point mutant, from the pGEX-6P-1 plasmid; Probably made on the full-length GST-PKM2; source: E. coli BL21, purified (glutathione S-transferase beads)
T7 sequence (P14618 whole entry W515A): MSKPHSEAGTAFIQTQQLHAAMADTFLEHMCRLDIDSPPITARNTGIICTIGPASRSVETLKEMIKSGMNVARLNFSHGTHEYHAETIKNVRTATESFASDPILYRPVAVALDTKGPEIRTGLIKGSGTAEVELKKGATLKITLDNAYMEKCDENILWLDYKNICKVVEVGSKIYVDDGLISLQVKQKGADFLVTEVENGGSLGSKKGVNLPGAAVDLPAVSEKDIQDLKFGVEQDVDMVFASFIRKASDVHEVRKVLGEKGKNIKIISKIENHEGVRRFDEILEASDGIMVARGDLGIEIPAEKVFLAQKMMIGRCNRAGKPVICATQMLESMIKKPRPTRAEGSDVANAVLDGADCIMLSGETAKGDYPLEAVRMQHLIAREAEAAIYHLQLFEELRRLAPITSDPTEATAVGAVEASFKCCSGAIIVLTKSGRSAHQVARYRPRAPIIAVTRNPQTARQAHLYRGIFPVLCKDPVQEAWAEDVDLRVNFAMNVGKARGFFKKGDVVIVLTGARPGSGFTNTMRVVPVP

GST-PKM2-R526A mutant = biological target: T8, GST-PKM2-R526A mutant (UniProt P14618 1-531, R526A); experiment: as above
T8 construct: PKM2 point mutant, from the pGEX-6P-1 plasmid; Probably made on the full-length GST-PKM2; source: E. coli BL21, purified (glutathione S-transferase beads)
T8 sequence (P14618 whole entry R526A): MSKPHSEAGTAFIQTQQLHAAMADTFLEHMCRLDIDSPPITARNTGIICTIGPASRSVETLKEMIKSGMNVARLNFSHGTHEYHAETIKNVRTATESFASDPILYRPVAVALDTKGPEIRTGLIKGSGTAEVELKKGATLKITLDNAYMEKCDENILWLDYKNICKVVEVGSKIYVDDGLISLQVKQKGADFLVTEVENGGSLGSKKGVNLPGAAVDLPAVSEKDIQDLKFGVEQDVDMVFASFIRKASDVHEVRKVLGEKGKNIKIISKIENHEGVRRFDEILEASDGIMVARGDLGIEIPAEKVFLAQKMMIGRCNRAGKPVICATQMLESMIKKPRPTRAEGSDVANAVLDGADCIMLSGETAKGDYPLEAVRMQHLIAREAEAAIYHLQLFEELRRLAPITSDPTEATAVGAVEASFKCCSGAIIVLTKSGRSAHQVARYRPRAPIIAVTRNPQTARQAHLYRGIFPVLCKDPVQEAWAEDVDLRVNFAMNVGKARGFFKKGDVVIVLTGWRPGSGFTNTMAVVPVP

His-PKM2 fusion protein = biological target: T9, His-PKM2 fusion protein (UniProt P14618 1-531); experiment: pull-down; GST pull-down: GST-NONO (full length or fragments) on glutathione-Sepharose beads mixed with His-PKM2 for 4 h at 4 °C, five washes, western blot
T9 construct: PKM2, from the pET28a plasmid; source: E. coli BL21, purified (nickel-nitrilotriacetic acid beads)

Binder: B2
binding result [1]: binds
binding result (GST-PKM2-S406A mutant): binds
binding result (GST-PKM2-R400A mutant): binds
binding result (GST-PKM2-T412A mutant): binds
binding result (GST-PKM2-D476A mutant): binds
binding result (GST-PKM2-D487A mutant): binds
binding result (GST-PKM2-W515A mutant): binds
binding result (GST-PKM2-R526A mutant): binds

B4: GST-NONO fragment F4 (229-471 aa) (domain or fragment, UniProt Q15233 229-471, looked up)
chain: QLDDEEGLPEKLVIKNQQFHKEREQPPRFAQPGSFEYEYAMRWKALIEMEKQQQDQVDRNIKEAREKLEMEMEAARHEHQVMLMRQDLMRRQEELRRMEELHNQEVQKRKQLELRQEEERRRREEEMRRQQEEMMRRQQEGFKGTFPDAREQEIRMGQMAMGGAMGINNRGAMPPAPVPAGTPAPPGPATMMPDGTLGLTPPTTERFGQAATMEGIGAIGGTPPAFNRAAPGAEFAPNKRRRY
notes: NONO residues 229-471, from the pGEX-6P-1 plasmid; also called GST-NONO F4; source: E. coli BL21, purified (glutathione S-transferase beads)
binding result (His-PKM2 fusion protein): binds

Results, then the binder that gave them:

binding result (His-NONO fusion protein): binds
B1: GST-PKM2 fragment F4 (390-531 aa) (domain or fragment, UniProt P14618 390-531, looked up)
chain: YHLQLFEELRRLAPITSDPTEATAVGAVEASFKCCSGAIIVLTKSGRSAHQVARYRPRAPIIAVTRNPQTARQAHLYRGIFPVLCKDPVQEAWAEDVDLRVNFAMNVGKARGFFKKGDVVIVLTGWRPGSGFTNTMRVVPVP
notes: PKM2 residues 390-531, from the pGEX-6P-1 plasmid; also called GST-PKM2 F4; source: E. coli BL21, purified (glutathione S-transferase beads)

binding result (His-PKM2 fusion protein): binds
B3: full-length GST-NONO (natural protein, UniProt Q15233 1-471, looked up)
chain: MQSNKTFNLEKQNHTPRKHHQHHHQQQHHQQQQQQPPPPPIPANGQQASSQNEGLTIDLKNFRKPGEKTFTQRSRLFVGNLPPDITEEEMRKLFEKYGKAGEVFIHKDKGFGFIRLETRTLAEIAKVELDNMPLRGKQLRVRFACHSASLTVRNLPQYVSNELLEEAFSVFGQVERAVVIVDDRGRPSGKGIVEFSGKPAARKALDRCSEGSFLLTTFPRPVTVEPMDQLDDEEGLPEKLVIKNQQFHKEREQPPRFAQPGSFEYEYAMRWKALIEMEKQQQDQVDRNIKEAREKLEMEMEAARHEHQVMLMRQDLMRRQEELRRMEELHNQEVQKRKQLELRQEEERRRREEEMRRQQEEMMRRQQEGFKGTFPDAREQEIRMGQMAMGGAMGINNRGAMPPAPVPAGTPAPPGPATMMPDGTLGLTPPTTERFGQAATMEGIGAIGGTPPAFNRAAPGAEFAPNKRRRY
notes: NONO, full length (fragments run to residue 471), from the pGEX-6P-1 plasmid; also called GST-NONO fusion protein; source: E. coli BL21, purified (glutathione S-transferase beads)
